Test results: US20240352098A1 (AstraZeneca / MedImmune, published 2024)

Columns and labels:
ClfA [1] = target: T1, ClfA (Staphylococcus aureus); experiment: fibrinogen binding inhibition ('Fg IH' / 'fibrinogen assay'); blocked ligand fibrinogen; sample after 2 weeks of light exposure; ClfA genotype not stated; printed in both tables
T1 chain: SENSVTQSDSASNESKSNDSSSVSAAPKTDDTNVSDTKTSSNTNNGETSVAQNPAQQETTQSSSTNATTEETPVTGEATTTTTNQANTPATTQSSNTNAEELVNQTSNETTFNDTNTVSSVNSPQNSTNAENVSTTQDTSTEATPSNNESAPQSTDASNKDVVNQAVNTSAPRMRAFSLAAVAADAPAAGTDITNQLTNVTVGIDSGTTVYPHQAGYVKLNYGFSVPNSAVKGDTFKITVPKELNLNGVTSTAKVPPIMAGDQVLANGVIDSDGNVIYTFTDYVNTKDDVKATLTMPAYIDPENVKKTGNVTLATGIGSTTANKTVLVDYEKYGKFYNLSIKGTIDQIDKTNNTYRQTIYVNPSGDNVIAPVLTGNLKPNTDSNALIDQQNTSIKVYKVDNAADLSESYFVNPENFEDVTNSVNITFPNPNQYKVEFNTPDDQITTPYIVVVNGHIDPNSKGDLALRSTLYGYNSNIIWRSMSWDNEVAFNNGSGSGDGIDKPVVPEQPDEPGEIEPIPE

ClfA [2] = target: T1, ClfA; experiment: fibrinogen binding inhibition ('Fg IH' / 'fibrinogen assay'); blocked ligand fibrinogen; sample after 1 week of light exposure; ClfA genotype not stated; printed in both tables
ClfA [3] = target: T1, ClfA; experiment: fibrinogen binding inhibition ('Fg IH' / 'fibrinogen assay'); blocked ligand fibrinogen; sample before light exposure; ClfA genotype not stated; printed in both tables
[4] = target: T2, S. aureus clumping factor A, founder genotype ClfA002 (Staphylococcus aureus, UniProt Q99VJ4 221-559)
T2 sequence: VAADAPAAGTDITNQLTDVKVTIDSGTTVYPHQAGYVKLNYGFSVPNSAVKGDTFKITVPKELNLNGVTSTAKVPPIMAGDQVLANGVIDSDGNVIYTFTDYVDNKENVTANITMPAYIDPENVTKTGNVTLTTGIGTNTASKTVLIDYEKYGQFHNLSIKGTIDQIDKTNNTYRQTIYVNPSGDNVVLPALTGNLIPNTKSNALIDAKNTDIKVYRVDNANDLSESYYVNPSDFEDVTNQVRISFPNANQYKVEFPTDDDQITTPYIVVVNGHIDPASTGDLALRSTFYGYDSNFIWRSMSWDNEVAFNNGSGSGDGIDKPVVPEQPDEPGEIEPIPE

[5] = target: T2, S. aureus clumping factor A, founder …; experiment: ELISA, inhibition of ClfA binding to immobilised fibrinogen
[6] = target: T3, S. aureus clumping factor A, founder genotype ClfA004 (Staphylococcus aureus); experiment: as above
T3 construct: range 221-559

[7] = target: T2, S. aureus clumping factor A, founder …; experiment: fibrinogen binding inhibition assay (FIG. 1B)
[8] = target: T3, S. aureus clumping factor A, founder …; experiment: fibrinogen binding inhibition assay (FIG. 1B)
[9] = target: T3, S. aureus clumping factor A, founder …
[10] = target: T2, S. aureus clumping factor A, founder …; experiment: inhibition of ClfA binding to fibrinogen
[11] = target: T3, S. aureus clumping factor A, founder …; experiment: inhibition of ClfA binding to fibrinogen
[12] = target: T2, S. aureus clumping factor A, founder …; experiment: fibrinogen binding inhibition assay (ClfA binding to fibrinogen)
[13] = target: T3, S. aureus clumping factor A, founder …; experiment: as above
[14] = target: T2, S. aureus clumping factor A, founder …; experiment: Biacore, antibody captured, ClfA as sample
[15] = target: T3, S. aureus clumping factor A, founder …; experiment: Biacore, antibody captured, ClfA as sample
[16] = target: T2, S. aureus clumping factor A, founder …; experiment: affinity kinetics, method not named (Table 1)
[17] = target: T3, S. aureus clumping factor A, founder …; experiment: affinity kinetics, method not named (Table 1)
[18] = target: T2, S. aureus clumping factor A, founder …; experiment: Biacore
[19] = target: T3, S. aureus clumping factor A, founder …; experiment: Biacore
ClfA [20] = target: T1, ClfA; experiment: fibrinogen binding inhibition ('IC50 (ug/ml) fibrinogen assay'); blocked ligand fibrinogen; sample after 2 weeks of light exposure; ClfA genotype not stated; printed only in the right-hand table

Binder | IC50 (ClfA [2]) [µg/mL] | IC50 (ClfA [3]) [µg/mL] | IC50 [10] [µg/mL] | IC50 [11] [µg/mL] | Kd [14] [nM] | koff [14] [s⁻¹] | kon [14] [M⁻¹ s⁻¹] | Kd [15] [nM] | koff [15] [s⁻¹] | kon [15] [M⁻¹ s⁻¹] | also measured
N3F (antibody, copies: 2 + 2) heavy: QVQLQESGPGLVKPSETLSLTCTVSGGSIQNSYWSWIRQPPGKGLEWIGYLYSSGRTNYTPSLKSRVTISVDTSKNQFSLKLSSVTAADTAVYYCARTHLGGFHYGGGFWFDPWGQGTLVTVSSASTKGPSVFPLAPSSKSTSGGTAALGCLVKDYFPEPVTVSWNSGALTSGVHTFPAVLQSSGLYSLSSVVTVPSSSLGTQTYICNVNHKPSNTKVDKRVEPKSCDKTHTCPPCPAPELLGGPSVFLFPPKPKDTLMISRTPEVTCVVVDVSHEDPEVKFNWYVDGVEVHNAKTKPREEQYNSTYRVVSVLTVLHQDWLNGKEYKCKVSNKALPAPIEKTISKAKGQPREPQVYTLPPSREEMTKNQVSLTCLVKGFYPSDIAVEWESNGQPENNYKTTPPVLDSDGSFFLYSKLTVDKSRWQQGNVFSCSVMHEACSFHLCQKSLSLSPGK light: DIQMTQSPSSLSASVGDRVTITCRASQSITSYLNWYQQKPGKAPKLLIYASSSLQSGVPSRFSGSGSGTDFTLTISSLQPEDFATYYCQESYSTPPTFGQGTKVEIKRTVAAPSVFIFPPSDEQLKSGTASVVCLLNNFYPREAKVQWKVDNALQSGNSQESVTEQDSKDSTYSLSSTLTLSKADYEKHKVYACEVTHQGLSSPVTKSFNRGEC | 19.9 | 9.95 | – | – | – | – | – | – | – | – | IC50 (ClfA [1]): 27.8 µg/mL
SAR114 anti-ClfA monoclonal antibody (antibody) heavy: not shown light: DIQMTQSPSSLSASVGDRVTITCRASQSITSYLNWYQQKPGKAPKLLIYASSSLQSGVPSRFSGSGSGTDFTLTISSLQPEDFATYYCQESYSTPPTFGQGTKVEIKRTVAAPSVFIFPPSDEQLKSGTASVVCLLNNFYPREAKVQWKVDNALQSGNSQESVTEQDSKDSTYSLSSTLTLSKADYEKHKVYACEVTHQGLSSPVTKSFNRGEC | – | – | 2.91 | 1.72 | 0.0477 | 0.000182 | 3.82e+06 | 0.0209 | 6.21e-05 | 2.97e+06 | IC50 (read off the curve) [4]: ~10000 nM; IC50 [5]: 14.3 nM; IC50 [6]: 8.08 nM; IC50 [7]: ~20000 nM; IC50 [8]: ~20000 nM; IC50 (read off the curve) [9]: ~30000 nM; IC50 [12]: 1.16 µg/mL; IC50 [13]: 1.63 µg/mL; Kd [16]: 0.0448 nM; koff [16]: 9.53e-05 s⁻¹; kon [16]: 2.13e+06 M⁻¹ s⁻¹; Kd [17]: 0.00115 nM; koff [17]: 6.46e-06 s⁻¹; kon [17]: 5.62e+06 M⁻¹ s⁻¹; fold tighter binding (KD) than SAR114-N3 [18]: ~10 fold; fold tighter binding (KD) than SAR114-N3 [19]: ~10 fold
N3Y (antibody) heavy chain: QVQLQESGPGLVKPSETLSLTCTVSGGSIQNSYWSWIRQPPGKGLEWIGYLYSSGRTNYTPSLKSRVTISVDTSKNQFSLKLSSVTAADTAVYYCARTHLGGFHYGGGFWFDPWGQGTLVTVSSASTKGPSVFPLAPSSKSTSGGTAALGCLVKDYFPEPVTVSWNSGALTSGVHTFPAVLQSSGLYSLSSVVTVPSSSLGTQTYICNVNHKPSNTKVDKRVEPKSCDKTHTCPPCPAPELLGGPSVFLFPPKPKDTLMISRTPEVTCVVVDVSHEDPEVKFNWYVDGVEVHNAKTKPREEQYNSTYRVVSVLTVLHQDWLNGKEYKCKVSNKALPAPIEKTISKAKGQPREPQVYTLPPSREEMTKNQVSLTCLVKGFYPSDIAVEWESNGQPENNYKTTPPVLDSDGSFFLYSKLTVDKSRWQQGNVFSCSVMHEACSYHLCQKSLSLSPGK light chain: DIQMTQSPSSLSASVGDRVTITCRASQSITSYLNWYQQKPGKAPKLLIYASSSLQSGVPSRFSGSGSGTDFTLTISSLQPEDFATYYCQESYSTPPTFGQGTKVEIKRTVAAPSVFIFPPSDEQLKSGTASVVCLLNNFYPREAKVQWKVDNALQSGNSQESVTEQDSKDSTYSLSSTLTLSKADYEKHKVYACEVTHQGLSSPVTKSFNRGEC | 9.2 | 6.28 | – | – | – | – | – | – | – | – | IC50 (ClfA [20]): 12.7 µg/mL
SAR114-N3 (antibody) heavy: QVQLQESGPGLVKPSETLSLTCTVSGGSIQNSYWSWIRQPPGKGLEWIGYLYSSGRTNYTPSLKSRVTISVDTSKNQFSLKLSSVTAADTAVYYCARTHLGGFHYGGGFWFDPWGQGTLVTVSSASTKGPSVFPLAPSSKSTSGGTAALGCLVKDYFPEPVTVSWNSGALTSGVHTFPAVLQSSGLYSLSSVVTVPSSSLGTQTYICNVNHKPSNTKVDKRVEPKSCDKTHTCPPCPAPELLGGPSVFLFPPKPKDTLMISRTPEVTCVVVDVSHEDPEVKFNWYVDGVEVHNAKTKPREEQYNSTYRVVSVLTVLHQDWLNGKEYKCKVSNKALPAPIEKTISKAKGQPREPQVYTLPPSREEMTKNQVSLTCLVKGFYPSDIAVEWESNGQPENNYKTTPPVLDSDGSFFLYSKLTVDKSRWQQGNVFSCSVMHEACSWHLCQKSLSLSPGK light: DIQMTQSPSSLSASVGDRVTITCRASQSITSYLNWYQQKPGKAPKLLIYASSSLQSGVPSRFSGSGSGTDFTLTISSLQPEDFATYYCQESYSTPPTFGQGTKVEIKRTVAAPSVFIFPPSDEQLKSGTASVVCLLNNFYPREAKVQWKVDNALQSGNSQESVTEQDSKDSTYSLSSTLTLSKADYEKHKVYACEVTHQGLSSPVTKSFNRGEC | – | – | 3.11 | 2.52 | 0.265 | 0.00104 | 3.92e+06 | 0.316 | 0.000756 | 2.39e+06 | –
